Measured values reported in publication PMC10877131 (JHEP Reports, 2024).

Biological target: the molecule itself
Assay: immunoblot

B1: Thrombospondin-2 (THBS2), overexpressed in LX-2 cells, in conditioned media (natural protein)
chain: not shown
  stoichiometry N: 2
